The values that follow come from the RNAGym collection of RNA variant scans (doi:10.7554/elife.80360).

Sequences and labels used below:
B1: CPEB3 Ribozyme (parent)
chain: GGGGGCCACAGCAGAAGCGUUCACGUCGCGGCCCCUGUCAGAUUCUGGUGAAUCUGCGAAUUCUGCUGU

The data set covers variants of B1. Put plainly: self-cleavage, relative activity (ratio to wild type); higher = more cleavage; co-transcriptional.
In the case of G1U A52U, the self-cleavage is 0.129.

As for G1U A52G, the self-cleavage was found to be 0.167. The same measure for G1U U20A: 0.042. As to G1C G2A, the self-cleavage was 0.408.

For the variant G1C U49G, the self-cleavage stood at 0.275. For the variant G1C U49C, the self-cleavage worked out at 0.116. Consider G1U C33A, for which the self-cleavage came out at 0.176. G1U U55G: the self-cleavage was 0.118.

In the case of G1U U55A, the self-cleavage came out at 0.109. The same measure for G1U U55C: 0.0608; for G1U G19A: 0.0502. For G1C G31A, the self-cleavage came out at 0.272. Next, G1C G31C: 0.0643; G1C G31U: 0.266; G1C C54G: 0.321. On to G1A G58C, for which the self-cleavage is 0.126. The same measure for G1A G58A: 0.0724; for G1A G65A: 0.0429; for G1A G65U: 0.106. Turning to G1A G65C, the self-cleavage was determined as 0.0479. For G1A U38C, the self-cleavage worked out at 0.0492. Take G1U U62C: the self-cleavage stood at 0.0771.

With G1U U62G, the self-cleavage stood at 0.0907.

Consider G1U U62A, for which the self-cleavage stood at 0.137. Next, G1C C9G: 0.203.

As to G1C C9U, the self-cleavage amounted to 0.246. For the variant G1U C9G, the self-cleavage was 0.233.

As to G1U C9U, the self-cleavage was found to be 0.219. The same measure for G1C C7A: 0.144. The same measure for G1C C7G: 0.128. G1U G68A: the self-cleavage turned out to be 0.129. In the case of G1U G68C, the self-cleavage came out at 0.0929.

Take G1U G68U: the self-cleavage turned out to be 0.173. G1A G50U: the self-cleavage is 0.0729. Regarding G1A G50A, the self-cleavage was 0.114. The same measure for G1C A40C: 0.231. As for G1C A40G, the self-cleavage turned out to be 0.268. G1C A23G: the self-cleavage was determined as 0.149. Next, G1C A23C: 0.25; G1C A23U: 0.222; G1C G48U: 0.241.

Consider G1U C66G, for which the self-cleavage worked out at 0.0803. G1U C66A: the self-cleavage worked out at 0.0594. Next, G1U A60C: 0.0797; G1C C45U: 0.24; G1C C45G: 0.182. As for G1C C45A, the self-cleavage was 0.252. The same measure for G1A U44C: 0.135; for G1A U44A: 0.0757; for G1C A16U: 0.159.

Take G1C A16G: the self-cleavage was determined as 0.254. Take G1U U46A: the self-cleavage stood at 0.123. For the variant G1U U46G, the self-cleavage was 0.0728. As to G1U C7A, the self-cleavage was 0.0722. For the variant G1U C7G, the self-cleavage came to 0.127. In the case of G1U C45U, the self-cleavage is 0.152. G1U C45G: the self-cleavage was found to be 0.134. With G1U G58C, the self-cleavage was 0.128.

For G1U G58U, the self-cleavage amounted to 0.137. For G1C C24A, the self-cleavage is 0.0947. The same measure for G1A U61C: 0.0531; for G1U U36C: 0.102. The same measure for G1U U36G: 0.0723; for G1U G11A: 0.0662; for G1U G50C: 0.0733. Next, G1U G50U: 0.056. G1U U38C: the self-cleavage was found to be 0.0816. Turning to G1U U38G, the self-cleavage worked out at 0.0202. For G1U A13U, the self-cleavage came out at 0.122. With G1U A51C, the self-cleavage was found to be 0.114.

For G1U A51U, the self-cleavage was 0.148. For the variant G1U A51G, the self-cleavage was 0.126.

As for G1U G14A, the self-cleavage was determined as 0.118. In the case of G1U G14C, the self-cleavage amounted to 0.133. The same measure for G1U C57U: 0.0565. Regarding G1U C57G, the self-cleavage is 0.0901. In the case of G1C A42C, the self-cleavage worked out at 0.274. For G1C A42G, the self-cleavage stood at 0.152. Next, G1A U69C: 0.187; G1A U69A: 0.0727. As to G1A U69G, the self-cleavage was 0.23. Take G1U A15G: the self-cleavage came to 0.191. Consider G1U A15C, for which the self-cleavage worked out at 0.136. With G1C G56A, the self-cleavage is 0.223.

As to G1C G56C, the self-cleavage turned out to be 0.186. On to G1C C33G, for which the self-cleavage was 0.118. The same measure for G1C C33U: 0.282. For G1C C33A, the self-cleavage came out at 0.197. Take G1U C63U: the self-cleavage stood at 0.0897. As for G1U C63A, the self-cleavage stood at 0.101. For G1U G31U, the self-cleavage amounted to 0.0933. As to G1U G31A, the self-cleavage amounted to 0.0918. G1U G31C: the self-cleavage was determined as 0.0835. Turning to G1C A13G, the self-cleavage was found to be 0.183. Consider G1C A13U, for which the self-cleavage was 0.155. Take G1C A13C: the self-cleavage worked out at 0.143. Take G1U U53A: the self-cleavage amounted to 0.0914.

G1U U53G: the self-cleavage turned out to be 0.101. Consider G1U G37A, for which the self-cleavage is 0.0613. Next, G1A U36A: 0.0492. Regarding G1A U36C, the self-cleavage was 0.0487. For the variant G1A U36G, the self-cleavage amounted to 0.0321. Regarding G1A U64A, the self-cleavage amounted to 0.134.

With G1A U64G, the self-cleavage was 0.0694.

As to G1C A60C, the self-cleavage turned out to be 0.0756. In the case of G1C A60G, the self-cleavage amounted to 0.273. As for G1A U21G, the self-cleavage came out at 0.0454. Regarding G1A U21A, the self-cleavage came out at 0.132. Turning to G1A G41C, the self-cleavage is 0.0331. In the case of G1A G41U, the self-cleavage was found to be 0.0947. Consider G1U C18U, for which the self-cleavage stood at 0.104. For G1U C18G, the self-cleavage came to 0.115. For the variant G1U C24G, the self-cleavage worked out at 0.0268. For the variant G1C C35U, the self-cleavage was 0.167. Consider G1C C35G, for which the self-cleavage was 0.161. Next, G1C C35A: 0.069; G1U A8U: 0.0804. For G1U A8C, the self-cleavage came to 0.0263. Regarding G1U A10U, the self-cleavage stood at 0.127. In the case of G1C U64A, the self-cleavage came to 0.236. For the variant G1C U64C, the self-cleavage is 0.179. In the case of G1C G50U, the self-cleavage was 0.169. G1U G28C: the self-cleavage stood at 0.0671.

Turning to G1U G28A, the self-cleavage was 0.0369. Next, G1U C54A: 0.116; G1U C54G: 0.099. With G1A U67C, the self-cleavage was found to be 0.121. On to G1U U43G, for which the self-cleavage stood at 0.113. Take G1U U43C: the self-cleavage stood at 0.127.

Consider G1U U43A, for which the self-cleavage stood at 0.0877. Regarding G1U, the self-cleavage was 0.11. Take G1C: the self-cleavage was found to be 0.219.

For the variant G1A G31A, the self-cleavage worked out at 0.0627. For the variant G1A G31C, the self-cleavage came out at 0.0308.

As to G1C C39G, the self-cleavage came out at 0.217. As to G1C C39U, the self-cleavage stood at 0.227. G1U C34G: the self-cleavage came out at 0.123. With G1U C34A, the self-cleavage came to 0.184. As for G1U C35U, the self-cleavage turned out to be 0.113.

On to G1U C35A, for which the self-cleavage stood at 0.0801. For G1C U61C, the self-cleavage is 0.141.

With G1C U61G, the self-cleavage was determined as 0.271.

Take G1U U64A: the self-cleavage is 0.0494. As for G1U U64C, the self-cleavage was 0.0613. Next, G1C C6G: 0.658; G1C C6A: 0.26. For the variant G1C C6U, the self-cleavage was found to be 0.282. The same measure for G1A U46C: 0.0905; for G1A U46G: 0.0453; for G1A U46A: 0.134. On to G1A G47A, for which the self-cleavage stood at 0.104. With G1A G47C, the self-cleavage was 0.0423.

On to G1A G47U, for which the self-cleavage was 0.104. As to G1C C34A, the self-cleavage is 0.152. On to G1C C34G, for which the self-cleavage is 0.159.

Regarding G1C C34U, the self-cleavage is 0.236. Next, G1A U26C: 0.138. Consider G1A U26A, for which the self-cleavage turned out to be 0.077. Regarding G1A U26G, the self-cleavage came to 0.0674.

G1C U26G: the self-cleavage was determined as 0.152. Next, G1C U26C: 0.162. Take G1U G47A: the self-cleavage came out at 0.117. The same measure for G1U G47U: 0.14; for G1C U43G: 0.205. G1C U43C: the self-cleavage was 0.245. In the case of G1C U43A, the self-cleavage turned out to be 0.202. For G1C G19A, the self-cleavage was found to be 0.086.
